Source: patent publication US20260053913A1 (BIOENTRE, published 2026)

T1: human CTLA4 (cytotoxic T-lymphocyte-associated antigen-4), isoform CTLA4-TM (human, UniProt P16410 36-223)
T1 sequence: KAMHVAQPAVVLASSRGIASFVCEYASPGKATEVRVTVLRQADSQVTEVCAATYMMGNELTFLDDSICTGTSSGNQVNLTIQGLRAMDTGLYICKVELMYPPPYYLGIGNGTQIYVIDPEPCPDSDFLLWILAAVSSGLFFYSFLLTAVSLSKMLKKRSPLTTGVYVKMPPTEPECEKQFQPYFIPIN

B1: BNI3, mouse IgG2a anti-human CTLA4 (CD152) antibody from BioXcell (antibody, V domains shown)
VH: DVQLQESGPGLVKPSQSLSLTCSVTGYSITSGYVWNWIRQFPGNKLEWMGYISHDGNTNYNPSLKNRISITRDTSKNQFFLKLNSVTTEDSATYYCTRNYGYGGTMDYWGQGTAVSVSS
VL: DIVMTQSQKFMSTSVGDRVSVTCKASQNVGTYVAWYEQKLGQSPKALIFSASYRYTGVPDRFTGSGSGTDFTLTISNVQSEDLAEYFCQQYDSYPLTFGGGTKLEIKR
B2: BioE2032 (121 HuIgG1) (antibody, V domains shown)
VH: QVQLQESGPGLVKPSQTLSLTCTVSGFSLTSYGVYWVRQPPGKGLEWLGVIWAGGTTNYNSALMSRLTISKDTSKNQVSLKLSSVTAADTAVYYCARGPPHAMMKRGYAMDYWGQGTLVTVSS
VL: DIQMTQSPSSLSASVGDRVTITCSATSSITYMSWYQQKPGKAPKLLIYDTSNLASGVPSRFSGSGSGTDYTLTISSLQPEDFATYYCQQWSSYPLTFGGGTKLEIK
B3: L3D10 (antibody, from another filing, V domains shown)
VH: QVQLKESGPGLVAPSQSLSITCTVSGFSLTSYGLSWVRQPPGKGLEWLGVIWYDGNTNFHSALISRLTISKDNSKSQVFLELNSLQTDDTATYYCAKTEGHYYGSNYGYYALDYWGQGTSVTVSS
VL: DIQMTQSPASLSVSVGETVTITCRASENIYSNLAWYQQKQGKSPQLLVYAATNLADGVPSRFSGSGSGTQYSLKINSLQSEDFGTYFCQHLWGTPYTFGGGTKLEIKR

Key:
[1] = biological target: T1, human CTLA4 (cytotoxic …); assay: cell-based or functional assay
[2] = biological target: human CTLA4 (cytotoxic T-lymphocyte-associated antigen-4), isoform CTLA4-TM (human) (UniProt P16410); assay: cell-based or functional assay

Binder	biological activity relative to Ipilimumab, Promega anti-CTLA 4 and anti-CTLA 4 + anti-PD1 functional blockade assays [1]	half maximum activity concentration, αCTLA 4 functional blockade assay [1]	maximal activity (ratio RLU), αCTLA 4 functional blockade assay [2]	plateau of the titration curve (ratio RLU over background) at 200 nM or greater [2]
B1	< 60 % of Ipilimumab activity	~50 nM		
B2		~50 nM		
B3			15 ratio RLU	15 to 20 ratio RLU
